Broadly, the Kd is the equilibrium constant for the complex coming apart. A lower Kd goes with higher affinity. By Cmax is commonly meant the highest concentration seen after dosing.

Consider 1 substance from US20260183437A1, “VHH ANTIBODY CONJUGATES WITH HETEROARYL CHELATORS” (ABDERA THERAPEUTICS INC., priority 2022, published 2026).

In one data set the target is T1, hFcRn (Homo sapiens, UniProt P55899).
T1 construct: purchased Sino Biological CT071-H27H-B
The data set can be described thus: FcRn affinity by biolayer interferometry (Octet RED96e), pH 6.0. The following applies: pH 6.0, 2:1 binding model. How it is done:
FcRn affinity of VHH-Fc can generally be used to predict the half-life of antibody serum clearance. (See, e.g., Datta-Mannan A et al. “FcRn affinity-pharmacokinetic relationship of five human IgG4 antibodies engineered for improved in vitro FcRn binding properties in cynomolgus monkeys.” Drug Metab Dispos. 2012 August; 40(8):1545-55). Briefly, 10 nM of biotinylated hFcRn (Sino Biological, Cat #: CT071-H27H-B) was captured with the SA biosensor using Octet RED96e (Fortebio). The hFcRN coated biosensor was dipped into the sample solutions in sodium phosphate buffer (100 mM Na2HPO4, 150 mM NaCl w/ 0.05% Tween-20, pH 6.0) with serial concentrations of tested antibodies and the association measured. The dissociation was measured by dipping the biosensors into sodium phosphate buffer without antibody. The KD values were determined using Octet Data Analysis HT 11.0 software. 2:1 (Heterogeneous Ligand) binding model was used in analysis. […] Changes in FcRn affinity were consistent across targets. Constructs with Fc Effector mutation only have no impact on FcRn affinity.

A further data set deals with T2, Human HER2-His (Homo sapiens, UniProt P04626).
T2 construct: His; purchased Sinobiologics 10004-H08H
Kind of data set: Affinity to target protein by biolayer interferometry (Octet Red96e). It counts as binding. The following applies: analyte Human HER2-His. How it is done: Antibody affinity was assessed using Octet Red96e (ForteBio). The association rate constant (ka), dissociation rate constant (kd) and affinity constant (KD) were measured by biolayer interferometry with anti-hIgG Fc (AHC) capture biosensors (Fortebio cat #18-5063). Each cycle was performed with orbital shake speed of 1,000 rpm. Antigen was titrated 1:2 from a suitable starting concentration in kinetics buffer (Fortebio, Cat #18-1105). A set of AHC biosensors was dipped in kinetics buffer for baseline step of 60s. Anti-Target VHH-Fc (5 μg/mL, in kinetics buffer) was loaded onto the biosensors for 240 s followed by a second baseline step of 30 s. The IgG captured sensors were dipped into buffer for single reference subtraction to compensate natural dissociation of capture IgG. Each biosensor was then dipped into corresponding concentration of target protein (human, murine or cynomolgus monomeric protein) for 600 s, followed by 1800 s of dissociation time in kinetics buffer, or conditions as optimized. A new set of AHC biosensors was used for every VHH-Fc. The data was analyzed by global fit 1:1 model for the association and dissociation step, (Octet software version v11.0).
For orientation: Biolayer interferometry detects binding as a change in optical thickness at a sensor tip.

A short description of data set [1]: Pharmacokinetics of VHH-Fc variants in Tg32 (humanized FcRn) mice. In kind it is in vivo. Conditions: IV 3 mg/kg, HER2 VHH-Fc study (Table 6). How it is done: Twenty eight (28) 8 week old male B6. Cg-Fcgrt^tm1Der Tg(FCGRT)32Dcr/DcrJ (Tg32 hom, JAX stock #014565) mice were distributed into 7 groups with 4 mice per group as outlined in the table. […] (See, e.g., Avery L B et al. “Utility of a human FcRn transgenic mouse model in drug discovery for early assessment and prediction of human pharmacokinetics of monoclonal antibodies.” MAbs. 2016 August-September; 8(6):1064-78). On Day 0, body weights were measured and test articles were IV administered to all mice at 3 mg/kg and 5 mL/kg. 25 μL blood samples were collected from each mouse at time intervals. The blood samples were collected into 1 μL K3EDTA, processed to plasma, diluted 1/10 in 50% glycerol in PBS, transferred into specialized 96 well storage plates, and stored at −20° C. All plasma samples were assessed via a hIgG ELISA chosen for its high sensitivity for all seven test articles.

A short description of data set [2]: Thermal stability by differential scanning fluorimetry (DSF). It counts as physicochemical. On the procedure:
Denaturing temperatures (Tm) of VHH-Fes were determined from differential scanning fluorimetry (DSF) using Protein Thermo Shift Dye Kit™ (ThermoFisher, Cat #: 4461146). Briefly, A total of 1 μg of antibody was used in each reaction. Melting curves of the antibodies were generated using an Applied Biosystems QuantStudio 7 Flex Real-Time PCR System with the recommended settings stated in the kit manual. The Tm's of the antibodies in Table 1 were then determined by using the ThermoFisher Protein Thermal Shift software (v.1.3). Tm1 of the VHH-Fcs was determined by DSF.
For orientation: Differential scanning fluorimetry follows unfolding on heating by fluorescence.

In the next data set the test system is HEK-DLL3 cells. The data set can be described thus: Internalization assay (pHAb dye labelled secondary antibody, flow cytometry). It counts as cell-based. Conditions: 75 nM, 37° C. How it is done: (§1) VHH-Fcs were tested for internalization by target-expressing cells using a secondary antibody conjugated to a pH sensitive dye. Goat anti-hu IgG-Fc secondary antibody was amine-conjugated to a pH sensitive pHAb dye (Promega Cat #G9845) according to the manufacturer's instructions. The pHAb dye has low or no fluorescence at pH>7 but fluoresces in acidic environment upon antibody internalization. […] VHH-Fcs and hIgG1 isotype control were diluted in media to 75 nM. Cells were spun to remove supernatant, resuspended with the prepared primary antibodies and incubated on ice for 1 hour. Excess primary antibody was washed off from cells and then incubated with pHAb labelled secondary antibody on ice for 30 minutes. Excess secondary was then washed off and cells were resuspended in media. One set of samples was placed in an incubator at 37° C. to allow internalization, and another set was left on ice (0° C.) as a binding only control. Cells were sampled at different time points ranging from 0 to 24 hours. Cells were stained with DAPI and read by flow cytometry on 572/28 channel with iQue screener platform. The VHH-Fcs show higher fluorescence than the negative controls (isotype, buffer) on target-positive cells.
For orientation: In flow cytometry, cells or beads pass a laser one at a time.

The subject of the next data set is SHP-77 cells. The data set is described as above. The following applies: 75 nM, 37° C. In kind it is cell-based. How it is done:
as §1

T1 sequence (P55899 24-297 limits assumed): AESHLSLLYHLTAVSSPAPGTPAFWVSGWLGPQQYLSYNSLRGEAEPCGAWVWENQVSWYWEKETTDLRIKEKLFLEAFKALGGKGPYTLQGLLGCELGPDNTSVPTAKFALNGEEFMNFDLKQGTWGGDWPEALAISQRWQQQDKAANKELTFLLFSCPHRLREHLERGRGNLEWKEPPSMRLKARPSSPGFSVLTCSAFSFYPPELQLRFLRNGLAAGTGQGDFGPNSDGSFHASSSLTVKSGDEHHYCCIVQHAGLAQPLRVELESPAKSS
T1 sequence (P61769 21-119 partner): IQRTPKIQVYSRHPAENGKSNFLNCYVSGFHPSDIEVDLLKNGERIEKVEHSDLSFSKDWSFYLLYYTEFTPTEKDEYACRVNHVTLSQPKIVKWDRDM

The substance “H101: anti-HER2 VHH-Fc (2RS15d VHH, human IgG1 Fc); FcRn wt, Fc effector wt [Compound H101]” yielded a Kd with hFcRn of 3.7 nM. The substance also registered a Kd in the data set with Human HER2-His of 3.79 nM. In data set [1], the Clearance was 28.7 mL/day, the Cmax came out at 57.0 µg/mL and the “Terminal Half-Life” value is 166 h. Also, the “Tm1 (thermostability) by DSF” value in data set [2] is 67.5±0.1 Celsius. Moreover, in the data set with HEK-DLL3 cells, the Internalization result is on record as “internalized”. In the data set on SHP-77 cells, the Internalization result is “internalized”.
